Experimental data as given in patent publication US20150246945A1 (JAPANESE FOUNDATION FOR CANCER RESEARCH, published 2015).
Ends that are not written are not given here. * marks the point of attachment. Biotin = O=C1N[C@H]2[C@H](CS[C@H]2CCCCC(=O)*)N1

Tests used:
[1] = target: T1, EpCAM, whole protein on cells (HT-29, MCF-7, 293T transfected with full-length EpCAM plasmid pkk196) or on … (UniProt P16422 24-314, limits assumed); test: staining of HT-29 spheroids with FITC peptide, fluorescence microscopy
T1 construct: whole, on cells; Used for both cell-surface EpCAM and EpCAM carried on HT-29 exosomes; the assay field says which; also called EpCAM on HT-29; EpCAM-expressing cells
T1 sequence (looked up): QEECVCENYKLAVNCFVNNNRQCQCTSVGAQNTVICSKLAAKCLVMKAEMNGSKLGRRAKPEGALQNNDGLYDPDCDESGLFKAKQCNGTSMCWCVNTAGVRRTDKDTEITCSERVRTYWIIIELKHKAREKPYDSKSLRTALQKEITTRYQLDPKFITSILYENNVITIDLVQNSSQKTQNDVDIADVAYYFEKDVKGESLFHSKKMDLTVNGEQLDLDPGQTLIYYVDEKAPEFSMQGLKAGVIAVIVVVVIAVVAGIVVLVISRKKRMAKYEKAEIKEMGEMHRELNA
Description: (§1) The HT-29 cells as EpCAM-expressing cells were cultured by spheroid culture method as follows: 4×10⁵ cells are suspended in 3 ml of D-MEM/F-12 medium (Dulbecco's Modified n Eagle Medium:Nutrient Mixture 12, 1:1 mixture) (Gibco/Life Technologies Inc.) supplemented with 20 ng/ml human EGF (Miltenyi Biotec K.K.), 20 ng/ml human […] (Miltenyi Biotec K.K.), B-27 (Gibco/Life Technologies Inc.), penicillin, and streptomycin and inoculated to EZ-Sphere®, a Petri dish of 3.5 cm in diameter coated with MPC polymer. After static culture for 72 hours, the cells were collected while the medium was suspended by pipetting. The cells were stained with the FITC-modified peptide and observed under a fluorescence microscope. The staining was carried out by adding 4 μM peptide into a McCoy's 5A medium and standing still at room temperature for 30 minutes.
When these control peptides were used at a concentration of 4 μM, no EpCAM staining was observed (data not shown).

[2] = target: T2, purified EpCAM (extracellular domain with myc and His tags at the C terminus, expressed in HEK-293T cells) (UniProt P16422 24-265, limits assumed); test: fluorescence depolarization, FITC-modified peptide
T2 construct: extracellular domain; also called epithelial cell adhesion molecule; CD326
T2 sequence (looked up): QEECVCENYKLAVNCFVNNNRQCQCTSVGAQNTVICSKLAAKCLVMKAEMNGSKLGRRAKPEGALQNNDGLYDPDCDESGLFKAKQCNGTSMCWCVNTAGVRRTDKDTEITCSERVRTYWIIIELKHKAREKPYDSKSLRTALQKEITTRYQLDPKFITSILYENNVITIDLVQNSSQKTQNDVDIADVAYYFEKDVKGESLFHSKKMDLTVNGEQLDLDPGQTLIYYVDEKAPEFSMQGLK
Description: Each FITC-modified EpCAM peptide or control peptide was suspended at a concentration of approximately 100 μM in PBS. After centrifugation, the supernatant was collected and diluted 10-fold, and the absorbance was measured at 495 nm From the measurement value, the molar concentration of the peptide was determined using the formula of Beer-Lambert of the following expression 1: […]
EpCAM is diluted with PBS into several concentrations from 0 until reaching equilibrium (40 nM for the Ep133 peptide), and the FITC-modified peptide whose precise concentration has been measured by the aforementioned method is added to the dilutions thus prepared. The sample was left at a temperature for measurement for 30 minutes or longer and subjected to polarization measurement using a spectrofluorometer FP-6500 (JASCO Corp.) equipped with an automatic polarization measurement unit (JASCO Corp., APH-103). Kd was estimated by curve fitting according to the Hill equation.
The dissociation constants of the EpCAM-binding peptide Ep301 (FIG. 2(D)) disclosed in Patent Literature 2 and Ep301 control (FIG. 2(E)), which was a control peptide derived from Ep301 by the substitution of cysteine at positions 5 and 10 by serine, and a sequence of EpCAM from residue 106 to 119 (FIG. 2(F)) having partial homology to EpCAM-binding peptides were measured similarly.

[3] = target: T1, EpCAM, whole protein on cells (HT-29, …); test: pull-down of HT-29 exosomes on peptide-loaded streptavidin beads, Western blot with anti-EpCAM
Description: 250 μg of streptavidin-magnetic beads (Dynabeads® M-280 streptavidin, VERITAS Corp.) in TBS containing 2% BSA was added to 20 μg of the biotinylated Ep114 peptide and shaken at room temperature for 30 minutes, followed by washing with TBS. Beads reacted without the peptide were used as a control. The anti-Ep114 antibody was added to the beads in TBST and reacted at room temperature for 1 hour. After washing with TBS, the beads were collected. The collected beads were heated at 95° C. for 5 minutes in a SDS sample buffer. After Western-blotting, the anti-Ep114 antibody was detected using HRP-labeled anti-rabbit antibodies.
The binding to exosomes was confirmed using the Western blot system in the similar method as in the preceding paragraph 1. Specifically, 20 μg of the biotinylated Ep114 peptide, the PE183 peptide, the PE184 peptide, or the PE185 peptide was bound to 250 μg of streptavidin-magnetic beads and then reacted with exosomes isolated from HT-29 cells as EpCAM-positive cells, followed by Western blot to detect the exosomes using anti-EpCAM polyclonal antibodies (see the left panel of FIG. 5C).

[4] = target: T2, purified EpCAM (extracellular domain …); test: pull-down of EpCAM on peptide-loaded streptavidin magnetic beads, Western blot
[5] = target: T2, purified EpCAM (extracellular domain …); test: ELISA, biotin peptide on streptavidin plate, purified EpCAM added
Description: was immobilized onto an ELISA plate via streptavidin, and purified EpCAM was added thereto in an amount of 0, 10, or 100 ng and reacted. After washing, bound EpCAM was detected using the anti-EpCAM antibody. A biotin-modified peptide PE194 (Ac-[…](biotin)-NH2) of the L3A variant (non-EpCAM-binding variant) was used as a control.

[6] = target: T1, EpCAM, whole protein on cells (HT-29, …); test: staining of HT-29 spheroids with FITC peptide
Description: as §1
Next, the results of staining using the L3A variant peptide as a control are shown.

[7] = target: T2, purified EpCAM (extracellular domain …); test: titer of phages bound to EpCAM-immobilized beads (TALON beads; Protein G beads with Vu-1D9), both conditions
Description: (§2) Under Condition 1, each phage (in FIG. 1C, rows 1 and 2 represent the Ep133-displaying phage, rows 3 and 4 represent the Ep301-displaying phage, and rows 5 and 6 represent the phage 447 displaying no peptide) was added at a titer of 1×10¹⁰ to 0.4 mg of TALON® beads immobilized 1 μg of EpCAM (FIG. 1C, rows 1, 3, and 5,indicating with plus sign) or the beads alone (FIG. 1C, rows 2, 4, and 6, indicating with minus sign). After washing with TBST five times, the titers of bound phages were measured.
as §2, with “2, 2.4 μg of anti-EpCAM monoclonal antibody (Vu-1D9, Abcam plc.) was immobilized on Protein G beads, and 3 μg of purified EpCAM was immobilized thereon via the antibody. Each” for “1, each”, “the” for “0.4 mg of TALON®”, “immobilized” for “immobilized 1 μg of”, “5, indicating” for “5,indicating with”, “once,” for “five times,”

B1: Ep114 control peptide in which cysteine at positions 5 and 10 is substituted by serine (peptide)
peptide: KHLQSVRNISWS
modifications: also: FITC-labeled, position not given here
binding result [1]: no binding (tested: 0.4 µM; also 4 µM (data not shown))

B2: Ep133 control (peptide)
peptide: EHLHSLGSLSWP
modifications: also: FITC-modified, position not given here
notes: Ep133 with cysteine at positions 5 and 10 substituted by serine
binding result [1]: no binding (tested: 0.4 µM; also 4 µM (data not shown))
binding result [2]: no binding

B3: PE183 peptide (peptide)
peptide: Ac-KHLQCVRNICWSPPPPPPKK(Biotin)-NH2
modifications: not fully specified (bridges); printed as Ac-KHLQCVRNICWSPPPPPPKK(biotin)-NH2; cysteine pairing not given here
binding result [3]: binds
binding result [4]: binds

B4: biotin-modified peptide PE194 of the L3A variant (peptide)
peptide: Ac-KHAQCVRNICWSPPPPPPKK(Biotin)-NH2
modifications: cysteine pairing not given here
notes: L3A control of PE183
binding result [5]: no binding (tested: 100 ng EpCAM)

B5: L3A variant peptide of Ep114, FITC-labeled (peptide)
peptide: KHAQCVRNICWS
modifications: not fully specified (bridges); cysteine pairing not given here; also: FITC-labeled, position not given here
notes: Free labeled peptide used as a control in cell staining; also called L3A control labeled peptide; control peptide
binding result [6]: no binding

B6: Ep133-displaying phage (peptide)
chain: EHLHCLGSLCWP
modifications: not fully specified (bridges); cysteine pairing not given here; also: displayed on phage
notes: also called cloned phage displaying Ep133; not shown: fusion and linker not described
fold ability to bind compared with Ep301-displaying phage [7]: ≥ 10 times
